Reference: patent US6991908B1, “Antiobestic agents methods for screening antiobestic agents and kits comprising same” (Takeda Chemical Industries, Ltd., priority 1998, dated 2006)
Positions of bridges follow the written chain, without caps; N, C: chain ends. No end group written: not given here. *: point of attachment. X1 = 3‑(4-hydroxy-3-iodophenyl)propionyl, O=C(CCc1ccc(O)c(I)c1)*

Tests used:
Type in all cases: biochemical
[1] = molecular target: T1, rat SLC-1 (Rattus norvegicus, UniProt P97639); assay: Inhibition of MCH-induced GTPγS binding by the method of Example 21 (compound plus MCH); conditions: read-out: IC50 calculated from the binding inhibition rate (%)
T1 construct: expressed in transfected cells; host or cells: CHO dhfr- cells, plasmid pAKK0-SLC-1, mainly clone #44
Procedure: The IC50(nM) of the compound (1) supra
(§1) A rat SLC-1-expression CHO cell membrane fraction was prepared by the following procedure. Rat SLC-1-expression CHO cells (1×10^8 cells) were suspended in phosphate buffered saline (pH 7.4) supplemented with 5 mM EDTA (ethylene diamine tetra acetic acid) followed by centrifugation. after 10 ml of a homogenate buffer (10 mM NaHCO3, 5 mM EDTA, pH 7.5) was added to the cell pellets, the mixture was homogenized with a polytron homogenizer. the homogenate was then centrifuged at 400×g for 15 minutes. the resulting supernatant was further centrifuged at 100,000×g for an hour to give membrane fraction precipitates. the precipitates were suspended in 2 ml of an assay buffer (50 mM Tris-HCl (pH 7.5), 1 mM EDTA, 0.1% BSA (bovine serum albumin), 10 mM MgCl2, 100 mM NaCl, 1 μM GDP (guanosine 5′-diphosphate), 0.25 mM PMSF (phenylmethylsulfonyl fluoride), 1 μg/ml pepstatin, 20 μg/ml leupeptin, 10 μg/ml phosphoramidon). the suspension was centrifuged at 100,000×g for an hour. the cell membrane recovered as precipitates was resuspended in 20 ml of the assay buffer. after dispensing, the suspension was stored at −80° C., which maybe thawed every time upon use.

[2] = molecular target: T1, rat SLC-1; assay: Agonist activity by GTPγS binding assay, rat SLC-1-expression CHO cell membrane fraction (Example 21); conditions: rat SLC-1 membrane, FIG. 7
Procedure: as §1

[3] = molecular target: T2, human SLC-1 (Homo sapiens, UniProt Q99705); assay: Agonist activity of Bolton-Hunter derivatized MCHs by GTPγS binding assay (Example 22); conditions: membrane fraction given as human SLC-1-expression CHO; FIG. 8
T2 construct: expressed in transfected cells; host or cells: CHO dhfr- cells, plasmid pAKK0-hSLC-1(S) or pAKK0-hSLC-1(L)
T2 sequence (Q99705 with tags, fused parts or gaps): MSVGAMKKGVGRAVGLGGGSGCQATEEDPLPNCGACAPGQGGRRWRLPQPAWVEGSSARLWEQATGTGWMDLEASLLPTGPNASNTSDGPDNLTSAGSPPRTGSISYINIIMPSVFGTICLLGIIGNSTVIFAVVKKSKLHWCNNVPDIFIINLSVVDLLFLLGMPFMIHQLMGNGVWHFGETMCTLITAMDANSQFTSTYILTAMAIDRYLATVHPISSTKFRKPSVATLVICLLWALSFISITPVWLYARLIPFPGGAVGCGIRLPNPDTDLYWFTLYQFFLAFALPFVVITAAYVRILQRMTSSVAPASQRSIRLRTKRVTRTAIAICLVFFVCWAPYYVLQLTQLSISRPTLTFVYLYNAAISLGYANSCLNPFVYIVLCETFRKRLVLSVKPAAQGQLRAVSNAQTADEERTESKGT

T1 sequence (P97639 whole entry): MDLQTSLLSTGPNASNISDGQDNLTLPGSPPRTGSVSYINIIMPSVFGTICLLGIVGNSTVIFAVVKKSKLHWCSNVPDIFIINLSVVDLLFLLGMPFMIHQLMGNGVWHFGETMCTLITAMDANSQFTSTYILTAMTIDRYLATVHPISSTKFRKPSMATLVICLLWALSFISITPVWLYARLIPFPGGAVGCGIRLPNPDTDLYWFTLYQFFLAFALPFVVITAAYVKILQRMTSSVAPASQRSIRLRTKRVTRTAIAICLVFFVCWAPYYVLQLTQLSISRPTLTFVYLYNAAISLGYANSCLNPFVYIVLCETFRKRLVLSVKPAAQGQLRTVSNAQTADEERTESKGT

Compound | agonist activity as compared to that of MCH [2] | amount of [35S]-GTPγS bound (agonist activity), dose dependence [3] | further results
COc1ccc(-c2ccc(C(=O)Nc3ccc4c(c3)CCC(CN(C)C)C4)cc2)cc1 (stereo not shown) [compound (1), N-[2-(N,N-Dimethylamino)methyl-6-tetralinyl]-(4′-methoxybiphenyl-4-yl)carboxamide] |  |  | IC50 [1]: 0.04 µM
BH-MCH(2-19): MCH(2-19) derivatized with a non-isotope Bolton-Hunter reagent (X1-FDMLRCMLGRVYRPCWQV; disulfide 6-15) |  | increased dose-dependently | 
BH-MCH(3-19): MCH(3-19) derivatized with a non-isotope Bolton-Hunter reagent (X1-DMLRCMLGRVYRPCWQV; disulfide 5-14) |  | increased dose-dependently | 
BH-MCH(5-19): MCH(5-19) derivatized with a non-isotope Bolton-Hunter reagent (X1-LRCMLGRVYRPCWQV; disulfide 3-12) |  | increased dose-dependently | 
Des-[Asp^1, Phe^2, Asp^3, Met, Leu^5]-MCH (RCMLGRVYRPCWQV; disulfide 2-11) [MCH(6-19)] |  |  | decrease of agonist activity as compared to that of MCH [2]: approximately 10 times

More lines, main results first:

agonist activity as compared to that of MCH [2] | amount of [35S]-GTPγS bound (agonist activity), dose dependence [3] | Compound | further results
almost the same agonist activity |  | Asp-Met-Leu-Arg-Cys-Met-Leu-Gly-Arg-Val-Tyr-Arg-Pro-Cys -Trp-Gln-Val (DMLRCMLGRVYRPCWQV; disulfide 5-14) [MCH(3-19)] | 
almost the same agonist activity |  | Leu-Arg-Cys-Met-Leu-Gly-Arg-Val-Tyr-Arg-Pro-Cys-Trp-Gln -Val-OH (LRCMLGRVYRPCWQV-OH; disulfide 3-12; N-terminus assumed; SMILES CSCC[C@@H]1NC(=O)[C@@H](NC(=O)[C@H](CCCNC(=N)N)NC(=O)[C@@H](N)CC(C)C)CSSC[C@@H](C(=O)N[C@@H](Cc2c[nH]c3ccccc23)C(=O)N[C@@H](CCC(N)=O)C(=O)N[C@H](C(=O)O)C(C)C)NC(=O)[C@@H]2CCCN2C(=O)[C@H](CCCNC(=N)N)NC(=O)[C@H](Cc2ccc(O)cc2)NC(=O)[C@H](C(C)C)NC(=O)[C@H](CCCNC(=N)N)NC(=O)CNC(=O)[C@H](CC(C)C)NC1=O) [MCH(5-19)] | 
almost the same agonist activity |  | Met-Leu-Arg-Cys-Met-Leu-Gly-Arg-Val-Tyr-Arg-Pro-Cys-Trp -Gln-Val (MLRCMLGRVYRPCWQV; disulfide 4-13) [MCH(4-19)] | 
almost the same agonist activity |  | Phe-Asp-Met-Leu-Arg-Cys-Met-Leu-Gly-Arg-Val-Tyr-Arg-Pro -Cys-Trp-Gln-Val (FDMLRCMLGRVYRPCWQV; disulfide 6-15) [MCH(2-19)] | 
 | increased dose-dependently | [N-(3-(4-Hydroxy-3-iodophenyl)propionyl)-Met^4]-MCH(4-19) (X1-MLRCMLGRVYRPCWQV; disulfide 4-13) [BH-MCH(4-19)] | 
